According to the supplement of paper PMC9170038:

Key:
[1] = tested on: MS2 coat protein; test: apparent KD of MS2 coat protein, switch ON state; designed switch direction (-1 OFF switch, 1 ON switch): -1; higher = weaker reporter binding; conditions: FMN input: 0 or 200 uM; Eterna round: R93 (includes R88 designs)
Outline: (§1)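 Designed RNA switches were transcribed on-chip from Illumina sequencing clusters. They were then titrated with SNAP-549-labelled MS2 coat protein (twofold steps, 0.7 or 1.5 nM to 3 µM; 0.8–1.5 h to 10–20 min per step) in 100 mM Tris-HCl pH 7.5, 80 mM KCl, 4 mM MgCl2, without or with constant ligand. Apparent KD is the per-design median of normalised cluster binding-curve fits.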

[2] = tested on: MS2 coat protein; test: apparent KD of MS2 coat protein, switch OFF state (with FMN for OFF switches, without FMN for ON switches); designed switch direction (-1 OFF switch, 1 ON switch): -1; higher = weaker reporter binding; conditions: FMN input: 0 or 200 uM; Eterna round: R93 (includes R88 designs)
Outline: as §1

## GCUUGGGUAGGAUAUACAUGAGGAUCACCCAUGUGAGAGAAAAAAGUGAGAAAGAAAAGUAGAAGGACUUGAGG [salish99-ex3-83]
[1]
  apparent KD of MS2 coat protein: 0.177 µM
[2]
  apparent KD of MS2 coat protein: 0.174 µM

## GGAAAACAUGAGGAUCACCCAUGUAAGGAUAUGCAAAAGGAUAUAGAAGGAAAAAAAAGCAGAAGGUACAAAGG [salish99-ex1-21]
[1]
  apparent KD of MS2 coat protein: 0.0325 µM
[2]
  apparent KD of MS2 coat protein: 0.151 µM

## GGAAAACAUGAGGAUCACCCAUGUGAGGAUAUCCAGGAUAUAGAAGGAGGAUAUAGAAGGAGAAGGCACGAAGG [salish99-ex1-18]
[1]
  apparent KD of MS2 coat protein: 0.0286 µM
[2]
  apparent KD of MS2 coat protein: 0.0331 µM

## GGAAAACAUGAGGAUCACCCAUGUGAGGAUAUCGAUGUCCAAAAAAAAGUGCGGGACUCGAGAAGGCACUUGGC [salish99-ex1-33]
[1]
  apparent KD of MS2 coat protein: 0.0515 µM
[2]
  apparent KD of MS2 coat protein: 0.0343 µM

## GGAAAGCAAGGAUAUGCAAACAAACAAACAAACAAAAGGGAACAUGAGGAUCACCCAUGUAGAAGGUGCAAACA [Exclusion 2 Two redone]
[1]
  apparent KD of MS2 coat protein: 0.0419 µM
[2]
  apparent KD of MS2 coat protein: 0.0286 µM

## GGAAAGCGAGGAUAUACAUGAGGAUCACCCAUGUAAAAGAAAAGAAAAGAAAGAAAAUGUAGAAGGCGCAAAAA [Exclusion 3 plus]
[1]
  apparent KD of MS2 coat protein: 0.0535 µM
[2]
  apparent KD of MS2 coat protein: 0.0544 µM

## GGAACACAUGAGGAUCACCCAUGUCAGGAUAUGUAGAUAAAAAGAAAAUAAAAUAAAAACAGAAGGGACAAAAG [May 3]
[1]
  apparent KD of MS2 coat protein: 0.076 µM
[2]
  apparent KD of MS2 coat protein: 0.0733 µM

## GGAGGCGAAGGAUAUACAUGAGGAUCACCCAUGUGAGAGAAAAAAGUGAGAAAGAAAAGUAGAAGGUCGUUUCG [salish99-ex3-128]
[1]
  apparent KD of MS2 coat protein: 0.0435 µM
[2]
  apparent KD of MS2 coat protein: 0.081 µM

## GGAGGCGUAGGAUAUACAUGAGGAUCACCCAUGUGAGAGAAAAAAGUGAGAAAGAAAAGUAGAAGGACGUUUCG [salish99-ex3-127]
[1]
  apparent KD of MS2 coat protein: 0.0454 µM
[2]
  apparent KD of MS2 coat protein: 0.0921 µM

## GGAUGCGAAGGAUAUACAUGAGGAUCACCCAUGUGAGAGAAAAAAGUGAGAAAGAAAAGUAGAAGGUCGUGUCG [salish99-ex3-93]
[1]
  apparent KD of MS2 coat protein: 0.0288 µM
[2]
  apparent KD of MS2 coat protein: 0.0972 µM

## GGGUCACAUGAGGAUCACCCAUGUAAGGAUAUGCUAGGGAUGGAAACCAGGCCGCAACGCAGAAGGUACUAAAG [Janelle Amethyst 18 Mod 13 - Jieux - Exclusion 1]
[1]
  apparent KD of MS2 coat protein: 0.0507 µM
[2]
  apparent KD of MS2 coat protein: 0.0645 µM

## GGUUGGCGAGGAUAUACAUGAGGAUCACCCAUGUGAGAGAAAAAAGAGAGAAAGAAAAGUAGAAGGCGCUGACG [salish99-ex3-52]
[1]
  apparent KD of MS2 coat protein: 0.0479 µM
[2]
  apparent KD of MS2 coat protein: 0.0978 µM

## GGUUGGCGAGGAUAUACAUGAGGAUCACCCAUGUGAGAGAAAAAAGUGAGAAAGAAAAGUAGAAGGCGCUGACA [salish99-ex3-03]
[1]
  apparent KD of MS2 coat protein: 0.0588 µM
[2]
  apparent KD of MS2 coat protein: 0.283 µM

## GGUUGGCGAGGAUAUACAUGAGGAUCACCCAUGUGAGAGAAAAAAGUGAGACAGAAAAGUAGAAGGCGCUGACG [salish99-ex3-24]
[1]
  apparent KD of MS2 coat protein: 0.0658 µM
[2]
  apparent KD of MS2 coat protein: 0.00745 µM

## GGUUGUGGAGGAUAUACAUGAGGAUCACCCAUGUGAGAGAAAAAAGUGAGAAAGAAAAGUAGAAGGUCAUGACG [salish99-ex3-65]
[1]
  apparent KD of MS2 coat protein: 0.0338 µM
[2]
  apparent KD of MS2 coat protein: 0.0468 µM

## GGUUUGGUAGGAUAUACAUGAGGAUCACCCAUGUGAGAGAAAAAAGUGAGAAAGAAAAGUAGAAGGACCGGACG [salish99-ex3-123]
[1]
  apparent KD of MS2 coat protein: 0.0399 µM
[2]
  apparent KD of MS2 coat protein: 0.102 µM

## GUCAGCUGAGGAUAUACAGGUGAGGCCGCAGGACAAAAUAUACAUGAGGAUCACCCAUGUAGAAGGCGGAAGAC [Vegea]
[1]
  apparent KD of MS2 coat protein: 0.0338 µM
[2]
  apparent KD of MS2 coat protein: 0.0445 µM
